Experimental data as given in patent US20250049970A1, “DLL3 TARGETING PEPTIDES AND CONSTRUCTS THEREOF” (MARIANA ONCOLOGY INC., priority 2023, published 2025).
Values joined by “and” are separate entries in the source; they are usually repeats but may differ in a detail not shown here. Equal entries are not always repeated. *1 amine or outer side, *2 acyl side, *3 side chain or, on linkers, in order; H or OH if unused. Where a SMILES comes first, the peptide text is derived from it. Bridges are numbered along the chain shown (N, C = ends). [ ]: non-standard residue; d: D form. The star is where a group is joined. Ala(piperidin-4-yl) = O=C([C@H](CC1CCN([*:3])CC1)N[*:1])[*:2]; DOTA = O=C(O)CN1CCN(CC(=O)O)CCN(CC(=O)*)CCN(CC(=O)O)CC1; 2Nal = N[C@@H](Cc1ccc2ccccc2c1)C(=O)O; NMetBuAla = CN[C@@H](CC(C)(C)C)C(=O)O; Ile(3-Me) = CCC(C)(C)[C@H](N)C(=O)O; aIle = CC[C@@H](C)[C@H](N)C(=O)O; tBuAla = CC(C)(C)C[C@H](N)C(=O)O; Chg = N[C@H](C(=O)O)C1CCCCC1; αMeP = C[C@@]1(C(=O)O)CCCN1

B1: Cpd No. 94 (peptide)
peptide: Ac-WT[tBuAla]C[Ala(piperidin-4-yl)]N[2Nal]K(DOTA)DCWP-NH2
modifications: bridge 4-10; not fully specified (bridges)
B2: Cpd No. 236 (peptide)
peptide: Ac-WT[NMetBuAla]C[Ala(piperidin-4-yl)]N[2Nal]K(DOTA)DCW[αMeP]-NH2
modifications: bridge 4-10; not fully specified (bridges)
B3: Cpd No. 303 (peptide)
peptide: Ac-WT[aIle]C[Ala(piperidin-4-yl)]N[2Nal]K(DOTA)DCWP-NH2
modifications: disulfide 4-10
B4: Cpd No. 302 (peptide)
peptide: Ac-WT[Ile(3-Me)]C[Ala(piperidin-4-yl)]N[2Nal]K(DOTA)DCWP-NH2
modifications: disulfide 4-10
B5: Cpd No. 324 (peptide)
peptide: Ac-WT[Chg]C[Ala(piperidin-4-yl)]N[2Nal]K(DOTA)DCWP-NH2
modifications: disulfide 4-10
B6: Cpd No. 1 (peptide)
peptide: Ac-MWTICNNWHDCWP-NH2
modifications: disulfide 5-11

Tests used:
DLL3 = target: T1, DLL3 (Homo sapiens, UniProt Q9NYJ7); assay: SPR binding affinity of cyclic peptides (SEQ ID NOs), SA sensor chip, Biacore S200; details: 25° C., 1:1 binding model
T1 sequence (Q9NYJ7 27-618): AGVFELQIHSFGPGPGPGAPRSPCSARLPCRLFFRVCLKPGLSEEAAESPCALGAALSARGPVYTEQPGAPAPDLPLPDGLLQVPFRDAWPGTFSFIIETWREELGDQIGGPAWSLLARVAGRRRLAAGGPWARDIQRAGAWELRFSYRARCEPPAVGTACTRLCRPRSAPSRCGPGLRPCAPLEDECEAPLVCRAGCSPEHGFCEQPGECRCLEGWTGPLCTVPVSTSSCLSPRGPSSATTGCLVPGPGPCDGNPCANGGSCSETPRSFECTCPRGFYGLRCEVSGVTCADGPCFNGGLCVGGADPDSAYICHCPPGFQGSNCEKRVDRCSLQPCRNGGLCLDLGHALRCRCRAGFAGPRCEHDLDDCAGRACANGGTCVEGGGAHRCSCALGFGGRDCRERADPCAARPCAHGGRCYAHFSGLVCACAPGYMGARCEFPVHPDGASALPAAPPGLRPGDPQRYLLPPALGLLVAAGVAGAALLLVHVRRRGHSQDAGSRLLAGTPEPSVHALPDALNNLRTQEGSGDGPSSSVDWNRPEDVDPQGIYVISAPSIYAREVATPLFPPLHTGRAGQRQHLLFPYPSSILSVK
Experimental: The binding affinity and binding kinetic parameters at 25° C. were determined using Biacore S200 instrument. Target ligand was immobilized on a SA sensor chip via streptavidin capture. A reference surface was set up for nonspecific binding and refractive index changes. For analysis of the kinetics of interactions, varying concentrations of peptides were injected at a flow rate of 50 μL/minute using running buffer containing 20 mM phosphate buffer with 2.7 mM KCl, 137 mM NaCl and 0.05% Surfactant P20. Sensorgram curves were fitted with 1:1 binding model, and affinity and kinetic parameters were obtained using either Biacore S200 evaluation software 1.1.1 or Biacore Insight evaluation 4.0.

[1] = target: DLL3 on CT26.DLL3 cells (Homo sapiens (Human)) (UniProt Q9NYJ7); assay: [177Lu]Lu-labelled peptide on CT26.DLL3 cells, 1 h 37 C, gamma counter; B = 25<%<=50
[2] = target: Recombinant human DLL3 aa27-215 protein (human) (UniProt Q9NYJ7); assay: ELISA: anti-DOTA antibody coated on the plate captures the DOTA-containing peptide (titrated 100 nM to 1.69 pM); 2 ug/mL DLL3 aa27-215 (His-tagged) added; detected with anti-His-HRP, OD450; EC50 fitted in GraphPad
DLL3 on SHP-77 cells [3] = target: T2, DLL3 on SHP-77 cells (human, UniProt Q9NYJ7 27-618); assay: [177Lu]Lu-labelled peptide on SHP-77 cells, 1 h 37 C, gamma counter; C = %>50
T2 construct: SHP-77 cells are human-derived, non-engineered SCLC cells
T2 sequence: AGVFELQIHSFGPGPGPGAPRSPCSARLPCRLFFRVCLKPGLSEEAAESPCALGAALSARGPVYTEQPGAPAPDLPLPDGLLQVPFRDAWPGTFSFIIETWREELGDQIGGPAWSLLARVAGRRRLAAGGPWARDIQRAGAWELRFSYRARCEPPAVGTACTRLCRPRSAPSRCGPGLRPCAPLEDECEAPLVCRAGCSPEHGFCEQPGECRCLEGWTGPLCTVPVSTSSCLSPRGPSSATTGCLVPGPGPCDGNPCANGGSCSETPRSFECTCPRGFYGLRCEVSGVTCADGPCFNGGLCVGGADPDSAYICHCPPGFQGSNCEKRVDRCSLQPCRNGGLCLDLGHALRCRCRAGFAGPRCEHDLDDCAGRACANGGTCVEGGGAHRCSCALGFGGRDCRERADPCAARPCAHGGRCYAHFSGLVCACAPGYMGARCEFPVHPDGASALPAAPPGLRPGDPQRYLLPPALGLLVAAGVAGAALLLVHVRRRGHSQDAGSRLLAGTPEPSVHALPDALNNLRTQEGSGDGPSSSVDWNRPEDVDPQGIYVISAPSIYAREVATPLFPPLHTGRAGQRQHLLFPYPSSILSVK

[4] = target: T3, Biotinylated target ligand human DLL3 (human, UniProt Q9NYJ7 27-492, limits assumed, biotinylated (site not stated)); assay: SPR, biotinylated human DLL3 on streptavidin chip; A = KD<=1.0 nM
T3 sequence: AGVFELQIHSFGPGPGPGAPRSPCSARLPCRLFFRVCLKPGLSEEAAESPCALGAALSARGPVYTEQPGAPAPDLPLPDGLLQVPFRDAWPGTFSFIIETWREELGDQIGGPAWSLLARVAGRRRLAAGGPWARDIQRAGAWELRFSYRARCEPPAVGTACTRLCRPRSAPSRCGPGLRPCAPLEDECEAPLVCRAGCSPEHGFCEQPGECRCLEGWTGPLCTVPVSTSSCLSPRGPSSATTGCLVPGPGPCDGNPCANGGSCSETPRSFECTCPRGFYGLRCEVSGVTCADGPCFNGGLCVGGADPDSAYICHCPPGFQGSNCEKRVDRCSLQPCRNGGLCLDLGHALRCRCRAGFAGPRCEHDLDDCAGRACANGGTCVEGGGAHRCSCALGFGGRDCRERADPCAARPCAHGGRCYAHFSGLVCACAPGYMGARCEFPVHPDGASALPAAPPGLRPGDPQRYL
Experimental: (§1) Biotinylated target ligand human DLL3 was immobilized on a streptavidin sensor chip. A reference surface was set up for nonspecific binding and refractive index changes. For analysis of the kinetics of interactions, varying concentrations of samples were injected at a flow rate of 100 μL/minute using running buffer containing 20 mM phosphate buffer with 2.7 mM KCl, 137 mM NaCl, 0.05% Surfactant P20 and 2% DMSO. Sensorgram curves were fitted with 1:1 binding model, and affinity and kinetic parameters were obtained using Biacore Insight evaluation 4.0. software.

DLL3 on SHP-77 cells [5] = target: T2, DLL3 on SHP-77 cells; assay: [177Lu]Lu-labelled peptide on SHP-77 cells, 1 h 37 C, gamma counter; B = 25<%<=50
[6] = target: DLL3 on CT26.DLL3 cells (Homo sapiens (Human)) (UniProt Q9NYJ7); assay: [177Lu]Lu-labelled peptide on CT26.DLL3 cells, 1 h 37 C, gamma counter; A = %<=25
[7] = target: T3, Biotinylated target ligand human DLL3; assay: SPR, biotinylated human DLL3 on streptavidin chip; B = 1.0 nM<KD<=10 nM; lower limit of grade B
Experimental: as §1

[8] = target: T3, Biotinylated target ligand human DLL3; assay: SPR, biotinylated human DLL3 on streptavidin chip; B = 1.0 nM<KD<=10 nM; upper limit of grade B
Experimental: as §1

Row | Molecule | Kd (DLL3) | % Binding (DLL3 on SHP-77 cells [5]) | % Binding [6] | also measured
1 | CSCC[C@H](NC(C)=O)C(=O)N[C@@H](Cc1c[nH]c2ccccc12)C(=O)N[C@@H](CCSC)C(=O)N[C@@H](CC(C)C)C(=O)N[C@H]1CSSC[C@@H](C(=O)N[C@@H](Cc2c[nH]c3ccccc23)C(=O)N2CCC[C@H]2C(N)=O)NC(=O)[C@H](CC(=O)O)NC(=O)[C@H](CCCCN)NC(=O)[C@H](CC(=O)O)NC(=O)[C@H](Cc2c[nH]c3ccccc23)NC(=O)[C@H](CC(=O)O)NC1=O [compound 77] (Ac-MWMLCDWDKDCWP-NH2; disulfide 5-11) | 150 nM | – | – | –
2 | CC[C@H](C)[C@H](NC(=O)[C@@H](NC(=O)[C@H](Cc1c[nH]c2ccccc12)NC(=O)[C@H](CCSC)NC(C)=O)[C@@H](C)O)C(=O)N[C@H]1CSSC[C@@H](C(=O)N[C@@H](Cc2c[nH]c3ccccc23)C(=O)N2CCC[C@H]2C(N)=O)NC(=O)[C@H](CC(=O)O)NC(=O)[C@H](Cc2cnc[nH]2)NC(=O)[C@H](Cc2c[nH]c3ccccc23)NC(=O)[C@H](CC(N)=O)NC(=O)[C@@H](C)NC1=O [compound 82] (Ac-MWTIC[dA]NWHDCWP-NH2; disulfide 5-11) | 47 nM | – | – | –
3 | CC[C@H](C)[C@H](NC(=O)[C@@H](NC(=O)[C@H](Cc1c[nH]c2ccccc12)NC(=O)[C@H](CCSC)NC(C)=O)[C@@H](C)O)C(=O)N[C@H]1CSSC[C@@H](C(=O)N[C@@H](Cc2c[nH]c3ccccc23)C(=O)N[C@H](C)C(N)=O)NC(=O)[C@H](CC(=O)O)NC(=O)[C@H](Cc2cnc[nH]2)NC(=O)[C@H](Cc2c[nH]c3ccccc23)NC(=O)[C@H](CC(N)=O)NC(=O)[C@H](CC(N)=O)NC1=O [compound 85] (Ac-MWTICNNWHDCW[dA]-NH2; disulfide 5-11) | 150 nM | – | – | –
4 | B1 | – | – | – | % Binding [1]: > 25% and < 50%; EC50 [2]: 2.19 nM
5 | B2 | – | – | – | EC50 [2]: 0.341 nM; % Binding (DLL3 on SHP-77 cells [3]): > 50%
6 | B3 | – | > 25% and < 50% | < 25% | Kd [4]: < 1 nM
7 | B4 | – | > 25% and < 50% | < 25% | –
8 | B5 | – | > 25% and < 50% | < 25% | –
9 | B6 | – | – | – | Kd [7]: > 1 nM; Kd [8]: ≤ 10 nM
